According to article PMC9841435, “Structural basis of DNA polymerase θ mediated DNA end joining” (Nucleic Acids Research, 2022):
Where two headings read alike, the source gives them in different places.

Tests used:
LcPol θ-pol [1] = tested on: T1, LcPol θ-pol; assay: steady-state primer extension, denaturing PAGE of 6-FAM hairpin DNA; type: biochemical, Lates calcarifer; details: 1 μM hairpin DNA HP [3,9], 1 nM enzyme, 5 mM MgCl2, 100 mM KCl, pH 7.6, 37 °C; read-out: KM, dATP
T1 construct: gene polq; C-terminal polymerase domain (pseudo-exonuclease, thumb, finger, palm), residues 1950-2714 of 2714; synthetic gene in pETsumo2; His6-SUMO tag removed by SENP2; E. coli Rosetta2 (DE3); mainly monomeric

LcPol θ-pol [2] = tested on: T1, LcPol θ-pol; assay: as above; type: biochemical, Lates calcarifer; details: Δloop2_b (ΔV2405–R2448); 1 μM hairpin DNA HP [3,9], 200 nM enzyme, 5 mM MgCl2, 100 mM KCl, pH 7.6, 37 °C; read-out: KM, dATP
LcPol theta-pol WT [3] = target: T2, LcPol theta-pol WT (Lates calcarifer, UniProt PDB:8EFK_1 1-864); assay: EMSA; 2.5 mM EDTA, no dNTP; EMSA: 10 nM HP [3,9], 25 mM HEPES pH 8.0, 100 mM KCl, 3 mM DTT, 100 ug/ml BSA, 10% glycerol, 2.5 mM EDTA, 0.01% NP40, on ice 20 min; 6% native PAGE, Tris-glycine; Hill fit; details: protein: recombinant; tags: His6-SUMO, removed by SENP2; label: 5' 6-FAM; hairpin, 3-bp stem, 9-nt dT loop, 5' overhang 8 nt
LcPol theta-pol Δloop1 = LcPol theta-pol Δloop1 (Lates calcarifer, UniProt PDB:8EFK_1 1-864, del443-461); assay: as above; details: protein: recombinant; tags: His6-SUMO, removed by SENP2; label: 5' 6-FAM; hairpin, 3-bp stem, 9-nt dT loop, 5' overhang 8 nt
[4] = target: LcPol theta-pol K2299A/K2300A/R2306A/R2307A (Lates calcarifer, UniProt PDB:8EFK_1 1-864, K449A;K450A;R456A;R457A); assay: as above; details: protein: recombinant; tags: His6-SUMO, removed by SENP2; label: 5' 6-FAM; hairpin, 3-bp stem, 9-nt dT loop, 5' overhang 8 nt
LcPol theta-pol Δloop2_b = LcPol theta-pol Δloop2_b (Lates calcarifer, UniProt PDB:8EFK_1 1-864, del555-598); assay: EMSA; 2.5 mM EDTA; Kd comparable to WT; EMSA: 10 nM HP [3,9], 25 mM HEPES pH 8.0, 100 mM KCl, 3 mM DTT, 100 ug/ml BSA, 10% glycerol, 2.5 mM EDTA, 0.01% NP40, on ice 20 min; 6% native PAGE, Tris-glycine; Hill fit; details: protein: recombinant; tags: His6-SUMO, removed by SENP2; label: 5' 6-FAM; hairpin, 3-bp stem, 9-nt dT loop, 5' overhang 8 nt
LcPol theta-pol Δloop2_a = LcPol theta-pol Δloop2_a (Lates calcarifer, UniProt PDB:8EFK_1 1-864, del552-591); assay: as above; details: protein: recombinant; tags: His6-SUMO, removed by SENP2; label: 5' 6-FAM; hairpin, 3-bp stem, 9-nt dT loop, 5' overhang 8 nt
LcPol theta-pol R2448A = LcPol theta-pol R2448A (Lates calcarifer, UniProt PDB:8EFK_1 1-864, R598A); assay: as above; details: protein: recombinant; tags: His6-SUMO, removed by SENP2; label: 5' 6-FAM; hairpin, 3-bp stem, 9-nt dT loop, 5' overhang 8 nt
[5] = target: LcPol theta-pol K2299A/K2300A (Lates calcarifer, UniProt PDB:8EFK_1 1-864, K449A;K450A); assay: EMSA; 2.5 mM EDTA; affinity similar to WT; EMSA: 10 nM HP [3,9], 25 mM HEPES pH 8.0, 100 mM KCl, 3 mM DTT, 100 ug/ml BSA, 10% glycerol, 2.5 mM EDTA, 0.01% NP40, on ice 20 min; 6% native PAGE, Tris-glycine; Hill fit; details: protein: recombinant; tags: His6-SUMO, removed by SENP2; label: 5' 6-FAM; hairpin, 3-bp stem, 9-nt dT loop, 5' overhang 8 nt
[6] = target: LcPol theta-pol R2306A/R2307A (Lates calcarifer, UniProt PDB:8EFK_1 1-864, R456A;R457A); assay: as above; details: protein: recombinant; tags: His6-SUMO, removed by SENP2; label: 5' 6-FAM; hairpin, 3-bp stem, 9-nt dT loop, 5' overhang 8 nt
LcPol theta-pol WT [7] = target: T2, LcPol theta-pol WT; assay: cryo-EM; dGTP, Mg2+; complex Ia, 2.4 A, 11 bp visible; EMSA: 10 nM HP [3,9], 25 mM HEPES pH 8.0, 100 mM KCl, 3 mM DTT, 100 ug/ml BSA, 10% glycerol, 2.5 mM EDTA, 0.01% NP40, on ice 20 min; 6% native PAGE, Tris-glycine; Hill fit; details: protein: recombinant; tags: His6-SUMO, removed by SENP2; primer/template, 20 bp, template 5' overhang 9 nt

T2 sequence (chain, as listed by the source): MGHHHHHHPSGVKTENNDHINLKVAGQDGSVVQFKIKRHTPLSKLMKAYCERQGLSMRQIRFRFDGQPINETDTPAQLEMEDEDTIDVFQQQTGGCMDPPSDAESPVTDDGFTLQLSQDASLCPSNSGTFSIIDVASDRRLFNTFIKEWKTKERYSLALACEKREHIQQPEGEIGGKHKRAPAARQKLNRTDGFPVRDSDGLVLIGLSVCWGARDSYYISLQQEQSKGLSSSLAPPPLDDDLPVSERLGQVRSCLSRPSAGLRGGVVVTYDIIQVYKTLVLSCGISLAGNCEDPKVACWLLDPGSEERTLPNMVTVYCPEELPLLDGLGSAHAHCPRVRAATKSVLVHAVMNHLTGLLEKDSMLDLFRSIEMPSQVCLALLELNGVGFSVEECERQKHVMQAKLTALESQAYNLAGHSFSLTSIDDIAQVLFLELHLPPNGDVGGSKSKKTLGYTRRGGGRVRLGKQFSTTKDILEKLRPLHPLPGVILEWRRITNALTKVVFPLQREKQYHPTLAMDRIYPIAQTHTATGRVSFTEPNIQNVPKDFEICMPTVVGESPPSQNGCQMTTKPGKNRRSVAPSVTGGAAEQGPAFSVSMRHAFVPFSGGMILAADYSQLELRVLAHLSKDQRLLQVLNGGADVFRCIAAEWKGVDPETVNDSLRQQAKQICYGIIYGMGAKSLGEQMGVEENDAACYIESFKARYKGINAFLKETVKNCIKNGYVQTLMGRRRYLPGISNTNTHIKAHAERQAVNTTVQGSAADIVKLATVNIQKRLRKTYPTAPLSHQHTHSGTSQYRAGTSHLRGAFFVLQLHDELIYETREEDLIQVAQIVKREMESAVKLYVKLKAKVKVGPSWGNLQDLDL
LcPol theta-pol Δloop1, sequence (chain, as listed by the source del443-461 | mutant): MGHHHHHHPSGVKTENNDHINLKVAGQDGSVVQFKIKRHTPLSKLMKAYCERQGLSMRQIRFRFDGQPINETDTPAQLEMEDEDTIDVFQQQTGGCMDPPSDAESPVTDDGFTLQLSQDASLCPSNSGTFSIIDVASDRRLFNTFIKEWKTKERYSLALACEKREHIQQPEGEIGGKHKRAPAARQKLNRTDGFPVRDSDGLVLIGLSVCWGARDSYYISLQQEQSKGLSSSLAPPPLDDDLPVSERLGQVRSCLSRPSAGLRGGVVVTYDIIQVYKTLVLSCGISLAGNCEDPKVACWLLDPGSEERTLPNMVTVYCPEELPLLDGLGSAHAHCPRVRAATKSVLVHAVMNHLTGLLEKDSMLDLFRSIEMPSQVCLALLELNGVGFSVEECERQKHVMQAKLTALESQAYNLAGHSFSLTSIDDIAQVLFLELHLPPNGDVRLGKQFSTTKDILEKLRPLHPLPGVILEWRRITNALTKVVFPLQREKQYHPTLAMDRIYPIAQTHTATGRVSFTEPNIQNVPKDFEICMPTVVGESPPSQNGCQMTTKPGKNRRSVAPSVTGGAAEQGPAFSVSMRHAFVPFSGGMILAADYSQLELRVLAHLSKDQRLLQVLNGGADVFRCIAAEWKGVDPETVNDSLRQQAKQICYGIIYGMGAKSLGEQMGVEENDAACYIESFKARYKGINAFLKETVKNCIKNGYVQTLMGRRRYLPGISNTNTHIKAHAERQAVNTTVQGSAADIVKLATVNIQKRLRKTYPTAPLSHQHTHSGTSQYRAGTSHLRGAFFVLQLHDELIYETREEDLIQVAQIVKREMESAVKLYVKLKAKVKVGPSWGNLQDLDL
LcPol theta-pol K2299A/K2300A/R2306A/R2307A, sequence (chain, as listed by the source with the stated changes): as the sequence (chain, as listed by the source) above, with K449A, K450A, R456A, R457A counted along it
LcPol theta-pol Δloop2_a, sequence (chain, as listed by the source del552-591 | mutant): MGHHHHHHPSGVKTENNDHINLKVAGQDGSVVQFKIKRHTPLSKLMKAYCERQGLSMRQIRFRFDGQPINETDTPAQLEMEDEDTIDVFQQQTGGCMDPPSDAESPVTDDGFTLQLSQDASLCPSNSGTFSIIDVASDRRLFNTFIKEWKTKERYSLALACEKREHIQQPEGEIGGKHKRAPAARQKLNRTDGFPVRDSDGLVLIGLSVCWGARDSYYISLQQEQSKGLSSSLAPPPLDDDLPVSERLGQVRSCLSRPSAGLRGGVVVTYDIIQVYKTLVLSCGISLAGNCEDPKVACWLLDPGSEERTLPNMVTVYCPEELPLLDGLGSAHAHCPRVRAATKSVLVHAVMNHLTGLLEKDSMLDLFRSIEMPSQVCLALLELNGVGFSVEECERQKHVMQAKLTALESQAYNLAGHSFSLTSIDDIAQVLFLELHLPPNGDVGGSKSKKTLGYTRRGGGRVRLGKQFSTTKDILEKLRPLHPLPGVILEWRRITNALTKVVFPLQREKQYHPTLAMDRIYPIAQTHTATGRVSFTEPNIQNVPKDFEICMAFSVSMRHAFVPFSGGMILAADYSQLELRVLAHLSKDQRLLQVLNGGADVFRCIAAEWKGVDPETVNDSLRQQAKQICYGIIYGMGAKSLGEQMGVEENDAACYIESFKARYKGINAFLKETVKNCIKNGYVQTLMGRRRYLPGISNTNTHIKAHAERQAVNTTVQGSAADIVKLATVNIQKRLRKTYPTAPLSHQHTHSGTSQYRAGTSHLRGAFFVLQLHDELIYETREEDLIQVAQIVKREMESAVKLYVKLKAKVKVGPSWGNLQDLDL
LcPol theta-pol K2299A/K2300A, sequence (chain, as listed by the source K449A;K450A | K2299A K2300A K2299A K2300A): as the sequence (chain, as listed by the source) above, with K449A, K450A counted along it
LcPol theta-pol R2448A, sequence (chain, as listed by the source R598A | R2448A R2448A): as the sequence (chain, as listed by the source) above, with R598A counted along it
LcPol theta-pol R2306A/R2307A, sequence (chain, as listed by the source R456A;R457A | R2306A R2307A R2306A R2307A): as the sequence (chain, as listed by the source) above, with R456A, R457A counted along it
LcPol theta-pol Δloop2_b, sequence (chain, as listed by the source del555-598 | mutant): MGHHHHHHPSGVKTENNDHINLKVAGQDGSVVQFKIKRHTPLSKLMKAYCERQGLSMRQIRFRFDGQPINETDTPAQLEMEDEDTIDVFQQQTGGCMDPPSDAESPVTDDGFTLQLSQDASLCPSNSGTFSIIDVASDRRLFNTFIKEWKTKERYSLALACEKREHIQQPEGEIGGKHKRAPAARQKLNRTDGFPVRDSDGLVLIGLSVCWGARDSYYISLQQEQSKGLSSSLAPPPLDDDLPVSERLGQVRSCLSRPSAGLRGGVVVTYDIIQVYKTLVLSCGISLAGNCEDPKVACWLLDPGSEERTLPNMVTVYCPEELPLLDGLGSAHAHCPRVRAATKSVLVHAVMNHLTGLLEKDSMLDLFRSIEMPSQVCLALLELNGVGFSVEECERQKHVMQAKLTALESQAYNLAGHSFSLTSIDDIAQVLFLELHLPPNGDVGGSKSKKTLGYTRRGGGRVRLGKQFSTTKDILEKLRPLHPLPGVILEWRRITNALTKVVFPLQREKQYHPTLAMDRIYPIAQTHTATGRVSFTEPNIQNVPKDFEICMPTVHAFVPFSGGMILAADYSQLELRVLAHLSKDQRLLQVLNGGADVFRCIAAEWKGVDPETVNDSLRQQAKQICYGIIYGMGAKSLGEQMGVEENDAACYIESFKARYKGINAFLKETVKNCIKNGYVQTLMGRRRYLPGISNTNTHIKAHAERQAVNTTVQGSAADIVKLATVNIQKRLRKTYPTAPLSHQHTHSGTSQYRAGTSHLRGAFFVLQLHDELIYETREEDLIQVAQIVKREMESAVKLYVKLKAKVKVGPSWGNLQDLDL

Nc1ncnc2c1ncn2[C@H]1C[C@H](O)[C@@H](COP(=O)(O)OP(=O)(O)OP(=O)(O)O)O1 [dATP]
Km (LcPol θ-pol [1]): 12 µM
Km (LcPol θ-pol [2]): 157 µM

TTTTTTTTGGCTTTTTTTTTGCC (structured_DNA) [HP [3,9]]
Kd (LcPol theta-pol WT [3]): 29 nM
Kd (LcPol theta-pol Δloop1): 138 nM
Kd [4]: 50 nM
binding result (LcPol theta-pol Δloop2_b): binds
binding result (LcPol theta-pol Δloop2_a): binds
binding result (LcPol theta-pol R2448A): binds
binding result [5]: binds
binding result [6]: binds

B1: 20/29 mer dsDNA, ddA-terminated primer (dsDNA)
DNA 1: TGCTGTGAGGCATCCGTAGA
DNA 2: GCAGTCAGCTCTACGGATGCCTCACAGCA
modifications: 3'-terminal dideoxy-A on primer
binding result (LcPol theta-pol WT [7]): binds
